# Laboratory results as given in patent US20080195324A1.
# Target: 10-subunit yeast RNA polymerase II (yeast) (UniProt P16370)
# Assay: 2.8 Å cocrystal structure; change in solvent-exposed surface of pol II residues, AREAIMOL, probe radius 1.4 Å
substance,measurement,value
α-amanitin (peptide),Δsurface area (Total),-541 Å^2
